The text below walks through data of the DeepSol protein solubility set.

The data set in a line: soluble on expression in E. coli; label from the status in PepcDB or PDB records.
Consider “MQFYNRQKELKLMELLDQGKPSFFVITGKRRVGKTELIKQFTRNRKALYLFVDSNKSINILMDEFDRLLKEKLDLPDYIKVDEPENFLKFITSYDRDLVIAIDEFQRFQKVYPSFITQLQRYWDMKPDNCRIFLIVSGSSIGMIRKIFIEEQAPLFKRADNILTIKPFTVLETFEMLDGMGIKNPEEKLNLYFLFGGTVYYYRLFEKYQCTGFDDALEKLIFSEFAPLKNEVREILIEEFGKEHSTYYEIISAISQGRCSMSEISDMTHVSSSSLSPYFYDLIDLLGVVEHRIPVMDNPEKSKRGRYFLKDNFFRFYGRFIYPMYSRYMAGNYSPMLEKVRKEWQSYTGKIFEDIVHELLVEKMISDYPELGSWWNRKGDEIDILGVDHRGRKSLVIEVKNKELAENEAREILELTLDKTKLVKGISGQKLKVGIVAQKVKGRKNLEDDGFLVWELEELIPLEHHHHHH”, for which the “soluble on expression in E. coli” value is recorded as “not soluble”.

Turning to “MMDPISIINKYYTEGTNQYHILVEHSRDVAALALRIVEIHPELQADRLFVEEAAMLHDIGIFLTDAESIACFGKEPYILHGYMGANILRKEGYPRHALVCERHTGSGLTSEDIAARQIALPPGIYTPQSIEEKIVCYADKFFSKTKLHRQKKLEDVRRSMLSYGADSLRRFDEMHALFKIPLG”, the “soluble on expression in E. coli” value is given as “soluble”.

Take “MMKKLFLDTHSASGEIKLTDGLLYWFPQFLTPIQADQAFQQMLTHLDWQQKSIRLFGKSVLQPRLIAWYGEKGYRYSGLSLSAQPFPPPLLTLKTQCEQAAQAPFNSVLANLYRDGQDSMGWHQDNEPELGSNPVIASLSLGESRRFLLRHHKDHALQVECELNHGDLLIMAGNTQHFWQHAIPKTRQTKQTRINLTFRNILLEHHHHHH”: the “soluble on expression in E. coli” value is recorded as “soluble”.

For the sequence “MAITAQMVKELREKTGAGMMDCKKALTETNGDMEKAIDFLREKGIAKAAKKADRIAAEGLTFIETNGNDGLILELNSETDFVAKNEGFQTLIKELAAHLLANKPANVEEAMAQTMENGKKVEEHINEAIAKIGEKLTLRRFEIVSKTDADAFGAYLHMGGRIGVLTVLEGSTDEAAAKDVAMHIAAVNPKYIDRDAVTAEEVEHERQVLTQQALNEGKPEKIVAKMVEGRLGKFFEEICLLDQAFVKNPDMKVRQFVESKGGTLKGFVRYAVGEGIEKREDNFAEEVMNQVKGSN”, the “soluble on expression in E. coli” value is recorded as “not soluble”.

Consider “MPYSSSGVGHNGFDKADLHIHTKCSDGLFTPEEIVHKAIHVGLKAISITDHDTVTGIDQAKPLALELGLELIPGVEMSSAYKGYDIHILGYFFDYQQSELKGYLDHCRLLRTERAERMVQKLAKMGVKIEIEQIIMKAQNGSVGRPHIAAVLQDEGFVKSFSEAFSKYLGSHSPAYVKSIETHPEEVIRLINEAGGLSFLAHPAQNVPDEILRQLISFGLDGLEIIHPSHDTYRQNYYREIANEYFLLFSGGSDYHGPKDHEDNFGQVWIPYEWVTKMKSRLAPAVKE”, for which the “soluble on expression in E. coli” value is “not soluble”.

With “MGSDKIHHHHHHMFKLVSEFEPTGDQPQAIEKLVEGLNRGMRFQTLLGVTGSGKTFTMANVIARVNRPALVISPNKTLAAQLYQEFKTFFPENRVEFFISYYDYYQPEAYIPTKDLYIEKNADINDVIVRMRMSTLKSVRTRRDVVVVASVSCIYATGDPNDFDRMNINLAVGDRIDVLELAERLARIGYQRTEDVSLSGCFRLKGDTVEIYPTYQDEGIRIEFFGDEVDSITLIDRFNRTTLEHLDKIIIYPAVEFITTEEKLKRAVESIREELNERLSELKKQGKILEYERLKQRTLNDIELLETMGYCPGIENYSRHFDGRKPGEPPYTLLDYFDKDFIVFIDESHITVPQLRAMYNGDRSRKKNLVEYGFRLPSAYDNRPLTFEEFLKKTGQIIFVSATPGDFELSISEQVVEQIIRPTGLVDPEVEVRPTAGQVDDLVNEIVKVKERGERALVTVLTKKTAELLSEHLTELGIRSLYLHSELDAIERVEVLKKLRRGDVDVVVGVNLLREGLDLPEVSLVAIMDADVEGFLRSETTLIQIIGRTARNVNGKVIMYADRITNAMKRAIEETNRRRRIQLEYNRKHGITPRSVIKPLEIEVFEQFMVKEEPERYGDTVKNIFEMKKTLSPEEYMAVLEEEMYRAASELRYEDAAALRDELFRIREEIKKKKGL”, the “soluble on expression in E. coli” value is on record as “not soluble”.

Turning to “MSLTADPPACTVPAAGGASTHKLVNAGAEKMIFKIKSSNNNEYRITPVFGFVDPSGSKDITITRTAGAPKEDKLVVHFAAAPADATDAQAAFAAITPAGTITIPMSATA”, the “soluble on expression in E. coli” value is listed as “soluble”.
